This note sets out measurements from patent EP3085709A1 (Genor Biopharma Co., Ltd, dated 2016).

Numbering of substitutions follows the chain as printed. In names and notes the source's numbering stands.

First the molecules themselves.
B1: pFL249-H16 scFv clone (scFv, not shown: small tags and cut ends)
scFv: QVQLVQSGAELKKPGASVKLSCKASGYTFTTYWLQWVRQAPGQGLEWMGAIYPGPGNTKYTQKFKDRFTITADKSKSTAYMQLNSLKSEDSAVYYCARRGSRRGIAYWGQGTLVTVSAGGGGSGGGGSGGGGSNIVLTQSPASLAVSLGQRATISCRASESVDSYGRSFMHWYQQRPGQPPTLLIYLASNLESGVPVRFSGSGSRTDFTLTIDPVEADDAATYYCQQDNEDPYTFGGGTKLEIK
B2: pFL249-H16u scFv clone (scFv, not shown: small tags and cut ends)
scFv: B1 scFv with K74T
B3: pFL249-H114 scFv clone (scFv, not shown: small tags and cut ends)
scFv: B1 scFv with K12V, K13Q, A40T, F68V, K74T, K76T, K87R
B4: G12 (antibody, human IgG2, kappa, V domains shown)
VH: QVQLVQSGAELKKPGASVKLSCKASGYTFTTYWLQWVRQAPGQGLEWMGAIYPGPGNTKYTQKFKDRFTITADTSKSTAYMQLNSLKSEDSAVYYCARRGSRRGIAYWGQGTLVTVSA
VL: NIVLTQSPASLSVSLGQRATISCRASESVDSYGRSFMHWYQQRPGQAPKLLIYLASNLESGVPARFSGSGSRTDFTLTISSVEAEDEATYYCQQDNEDPYTFGGGTKLEIKG
notes: 293F cells
B5: G14 (antibody, human IgG2, kappa, V domains shown)
VH: B4 VH with L11V, L20V, F68V, T74E, K76T, Q82E, N84S, K87R, S91T
VL: DIVMTQSPDSLAVSLGERATINCRASESVDSYGRSFMHWYQQKPGQAPRLLIYLASNLESGVPSRFSGSGSGTDFTLTINSLEAEDAATYYCQQDNEDPYTFGGGTKLEIKG
B6: G8 (antibody, human IgG2, kappa, V domains shown)
VH: B4 VH with K12V, K13Q, A40T, F68V, K76T, K87R
VL: B4 VL
B7: G10 (antibody, human IgG2, kappa, V domains shown)
VH: B4 VH
VL: B4 VL with K49R
notes: 293F cells
B8: G4 (antibody, human IgG2, kappa, V domains shown)
VH: B4 VH with T74K
VL: B4 VL
notes: 293F cells
B9: G15 (antibody, human IgG2, kappa, V domains shown)
VH: B4 VH with L11V, L20V, F68V, T74E, K76T, Q82E, N84S, K87R, S91T
VL: B4 VL with K49R
notes: expressed in CHO-S cells for Embodiments 23-25
B10: recombinant human RANKL (soluble, Gly136-Asp317, N-terminal 10 His, expressed in CHO cells) (ligand)
chain: HHHHHHHHHHGSQHIRAEKAMVDGSWLDLAKRSKLEAQPFAHLTINATDIPSGSHKVSLSSWYHDRGWAKISNMTFSNGKLIVNQDGFYYLYANICFRHHETSGDLATEYLQLMVYVTKTSIKIPSSHTLMKGGSTKYWSGNSEFHFYSINVGGFFKLRSGEEISIEVSNPSLLDPDQDATYFGAFKVRDID

Test [1] has as its target T1, recombinant human RANKL (soluble, Gly136-Asp317, N-terminal 10 His, expressed in CHO cells) (human) (UniProt O14788).
T1 sequence: B10 chain
Briefly: ELISA, recombinant human RANKL coated 1 µg/ml, RANK-Fc titrated. In general terms: In an ELISA, binding on a coated surface is turned into a signal by an enzyme label.

The target of test [2] is commercial hRANKL standard (R & D Systems) (human) (UniProt O14788). As to the kind of experiment: ELISA, commercial hRANKL standard coated 1 µg/ml, RANK-Fc titrated.
Test [3] deals with RANK receptor on RAW264.7 cells (mouse (RAW264.7 cells)) (UniProt O35305). As to the kind of experiment: cell-based or functional assay.
For test [4], the target named is T1, recombinant human RANKL (soluble, Gly136-Asp317, N-terminal 10 His, expressed in CHO cells) (human). Briefly: ELISA, hRANKL coated 1 µg/ml, scFv supernatant, anti-c-myc detection.
Test [5] has as its target B10. Briefly: cell-based or functional assay.
The target in test [6] is B10. As to the kind of experiment: competitive ELISA, RANK-Fc coated, antibody pre-incubated with 0.25 µg/ml hRANKL; Plate#02.
The target of test [7] is B10. Briefly: ELISA, hRANKL coated 1 µg/ml; concentration at 50% Bmax; Plate#02.
Test [8] addresses B10. Briefly: competitive ELISA, RANK-Fc coated, antibody pre-incubated with 0.25 µg/ml hRANKL; third plate (printed Plate#02).
In test [9] the target is B10. As to the kind of experiment: cell-based or functional assay. This is another data set of the same source.
The target in test [10] is B10. As to the kind of experiment: ELISA, hRANKL coated 1 µg/ml; concentration at 50% Bmax; Plate#03.
For test [11], the target named is B10. Briefly: ELISA, hRANKL coated, method of Example 17; antibody from CHO-S cells.
Test [12] deals with B10. As to the kind of experiment: competitive ELISA, RANK-Fc coated, method of Example 18; antibody from CHO-S cells.
Test [13] concerns the target B10. As to the kind of experiment: ELISA, hRANKL coated 1 µg/ml; concentration at 50% Bmax; Plate#01.
Test [14] concerns the target B10. Briefly: competitive ELISA, RANK-Fc coated, antibody pre-incubated with 0.25 µg/ml hRANKL; Plate#01.
For test [15], the target named is T2, RANK receptor on RAW264.7 cells (mouse (RAW264.7 cells), UniProt O35305 31-625).
T2 sequence (looked up): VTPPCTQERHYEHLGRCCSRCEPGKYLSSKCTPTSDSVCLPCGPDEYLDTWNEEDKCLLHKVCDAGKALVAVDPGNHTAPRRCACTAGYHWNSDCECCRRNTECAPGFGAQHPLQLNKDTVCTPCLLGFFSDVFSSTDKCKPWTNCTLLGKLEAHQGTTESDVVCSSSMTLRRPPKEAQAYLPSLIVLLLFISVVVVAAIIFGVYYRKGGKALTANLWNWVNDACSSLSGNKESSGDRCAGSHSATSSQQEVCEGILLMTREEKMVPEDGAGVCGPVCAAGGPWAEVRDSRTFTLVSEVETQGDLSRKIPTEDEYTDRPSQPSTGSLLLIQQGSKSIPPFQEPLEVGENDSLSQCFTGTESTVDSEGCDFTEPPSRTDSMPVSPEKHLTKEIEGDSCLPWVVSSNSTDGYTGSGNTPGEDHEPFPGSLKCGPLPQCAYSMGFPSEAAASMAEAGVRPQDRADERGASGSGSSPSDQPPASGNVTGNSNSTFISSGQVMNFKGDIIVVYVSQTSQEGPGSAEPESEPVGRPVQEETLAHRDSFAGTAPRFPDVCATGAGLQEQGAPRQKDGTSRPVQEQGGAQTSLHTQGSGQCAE
As to the kind of experiment: cell-based or functional assay.

RANK-Fc (R & D Systems) (Fc fusion): the values for the EC50 in [1] and in test [2] were 0.0109 µg/mL and 0.0056 µg/mL, respectively.
Regarding “commercial hRANKL standard (R & D Systems) (from UniProt O14788 140-317) (ligand)”, the EC50 of inducing RAW264.7 cells to differentiate into osteoclasts (TRAP activity, pNPP) in test [3] stood at 35.7 ng/ml.
In the case of B1, in test [4], the OD450 was determined as 1.2 OD450.
For B2, in test [4], the OD450 stood at 1.2 OD450.
Regarding B3, in [4], the OD450 amounted to 1.2 OD450.
For the molecule B4, the “IC50 (ng/ml) in RAW264.7 cells” value in [5] is about 1060 ng/mL. The IC50 – broadly, the concentration at which inhibition is half-maximal – in test [6] was 0.36 µg/mL. Besides, the concentration giving a half-maximal response (EC50) (as a rule, the concentration that produces a half-maximal response) in test [7] was 0.00175 µg/mL.
In the case of B5, the values for the IC50 in [8] and in [12] were 0.12 µg/mL and 0.16 µg/mL, respectively. For the same molecule, in test [9], the “IC50 for inhibiting cell differentiation of RAW264.7” value turned out to be 0.247 µg/mL. Also, the “IC50 (ng/ml) in RAW264.7 cells” value in test [5] is about 517 ng/mL. Also, the values for the EC50 in test [10] and in [11] were 0.004 µg/mL and 0.00209 µg/mL, respectively.
B6: the “IC50 for inhibiting cell differentiation of RAW264.7” value in test [9] came out at 0.329 µg/mL. In addition, in test [5], the “IC50 (ng/ml) in RAW264.7 cells” value was about 573 ng/mL. In addition, the IC50 in test [6] is 0.38 µg/mL; in test [12] it was 0.37 µg/mL. Also, the EC50 in [11] was determined as 0.00405 µg/mL; in test [7], 0.00276 µg/mL.
B7: the “IC50 (ng/ml) in RAW264.7 cells” value in test [5] came out at 695 ng/mL. For the same molecule, the IC50 in test [6] came out at 0.4 µg/mL. Further, in test [7], the EC50 was found to be 0.00285 µg/mL.
In the case of B8, the EC50 in test [13] was 0.00195 µg/mL. Further, in [5], the “IC50 (ng/ml) in RAW264.7 cells” value was about 1080 ng/mL. In addition, the IC50 in [14] is about 0.36 µg/mL.
For the molecule B9, the “IC50 for inhibiting cell differentiation of RAW264.7” value in test [9] is 0.257 µg/mL. Moreover, the EC50 in test [11] was determined as 0.00356 µg/mL. Moreover, in [12], the IC50 stood at 0.25 µg/mL.
As to B10, the “EC50 of inducing RAW264.7 cells to differentiate into osteoclasts (TRAP activity, pNPP)” value in test [15] was 113 ng/ml.
